Reference: PMC12568027

Target: HIV-2 GL-AN CA P14C/E45C/W184A/M185A (HIV-2 GL-AN)

HIV-2 GL-AN CA P14C/E45C/W184A/M185A (natural protein)
stoichiometry N: 6
